Results: patent US20170184603A1 (MORPHOTEK, published 2017)

Biological target: T1, purified FR-α (UniProt P15328 25-234, limits assumed)
T1 construct: also called folate receptor-alpha; alpha-folate receptor
Assay: surface plasmon resonance spectroscopy

T1 sequence (P15328 25-234 limits assumed): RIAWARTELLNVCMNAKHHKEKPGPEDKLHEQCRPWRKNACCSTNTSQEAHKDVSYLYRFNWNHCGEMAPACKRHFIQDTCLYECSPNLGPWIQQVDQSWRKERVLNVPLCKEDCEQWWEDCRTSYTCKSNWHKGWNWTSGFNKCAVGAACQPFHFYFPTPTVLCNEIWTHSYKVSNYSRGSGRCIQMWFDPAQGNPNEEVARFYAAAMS

B1: anti-FR-α antibody comprising a heavy chain comprising an amino acid sequence of SEQ ID NO:5 and a light chain comprising an amino acid sequence of SEQ ID NO:2 (antibody, human IgG1, kappa, V domains shown)
VH: EVQLVESGGGVVQPGRSLRLSCSASGFTFSGYGLSWVRQAPGKGLEWVAMISSGGSYTYYADSVKGRFAISRDNAKNTLFLQMDSLRPEDTGVYFCARHGDDPAWFAYWGQGTPVTVSS
VL: DIQLTQSPSSLSASVGDRVTITCSVSSSISSNNLHWYQQKPGKAPKPWIYGTSNLASGVPSRFSGSGSGTDYTFTISSLQPEDIATYYCQQWSSYPYMYTFGQGTKVEIKR
notes: also called antibody of the invention; humanized anti-FR-α antibody
- Kd: 2.23 nM
- koff: ~0.000502 s⁻¹
- kon: ~225000 M⁻¹ s⁻¹
